B1: Azoarcus group I ribozyme (parent)
chain: GUGCCUUGCGCCGGGAAACCACGCAAGGGAUGGUGUCAAAUUCGGCGAAACCUAAGCGCCCGCCCGGGCGUAUGGCAACGCCGAGCCAAGCUUCGGCGCCUGCGCCGAUGAAGGUGUAGAGACUAGACGGCACCCACCUAAGGCAAACGCUAUGGUGAAGGCAUAGUCCAGGGAGUGGCGAAAGUCACACAAACCGG

Variants of: B1
Assay: reverse-splicing fitness (ratio to wild type); higher = more active; in vitro selection; Mg2+ level not given
Method in brief: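 An in vitro group I ribozyme library with randomized positions was T7-transcribed and gel-purified. In triplicate, 10 pmol RNA in EPPS pH 7.5 was reacted with 50 pmoles of a 30-nt RNA substrate for 1 h at 37 °C across several added MgCl2 levels (1–48 mM), then stopped with EDTA. Products were reverse transcribed from a substrate-complementary primer, PCR-amplified and sequenced (HiSeq 4000). Fitness is a variant's read proportion after selection over that before, normalised to wild type.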

**Q.** Which reverse-splicing fitness does the source give for C82U A120C C150G C169G U176A here?
**A.** 0.00705

**Q.** For C82U A120C A145G C150G C169G U176A, which reverse-splicing fitness is on record?
**A.** 0.00987

**Q.** With C82U A120C A145G C150G C169G U176C as the variant, how does the reverse-splicing fitness read?
**A.** 0.0118

**Q.** With C82U A120C A145G C150G C169G U176G as the variant, how does the reverse-splicing fitness read?
**A.** 0.00504

**Q.** With C82U A111U C150U C169U U176G as the variant, how does the reverse-splicing fitness read?
**A.** 0.00625

**Q.** Which reverse-splicing fitness does the source give for C82U A111U C150U C169U U176C here?
**A.** 0.0152

**Q.** For C82U A111U C150U C169U U176A, which reverse-splicing fitness is on record?
**A.** 0.0149

**Q.** With C82U A120C A145U C169U as the variant, how does the reverse-splicing fitness read?
**A.** 0.0193

**Q.** For C82U A120C A145U C169G, which reverse-splicing fitness is on record?
**A.** 0.00567

**Q.** Which reverse-splicing fitness does the source give for C82U A120C A145U C169A here?
**A.** 0.00492

**Q.** Which reverse-splicing fitness does the source give for C82U A120C A145U C169U U176A here?
**A.** 0.0169

**Q.** Which reverse-splicing fitness does the source give for C82U A120C A145U C169U U176C here?
**A.** 0.0155

**Q.** Which reverse-splicing fitness does the source give for C82U A120C A145U C169U U176G here?
**A.** 0.00405

**Q.** With C82U A120C A145G C150A U176A as the variant, how does the reverse-splicing fitness read?
**A.** 0.0152

**Q.** With C82U A120C A145G C150A U176C as the variant, how does the reverse-splicing fitness read?
**A.** 0.0295

**Q.** Which reverse-splicing fitness does the source give for C82U A120C A145G C150A U176G here?
**A.** 0.00716

**Q.** Which reverse-splicing fitness does the source give for C82U A120C C169A U176C here?
**A.** 0.0121

**Q.** For C82U A120C C169A U176G, which reverse-splicing fitness is on record?
**A.** 0.00409

**Q.** Which reverse-splicing fitness does the source give for C82U A120C C169A U176A here?
**A.** 0.0143

**Q.** For C82U A111U C150G C169G U176A, which reverse-splicing fitness is on record?
**A.** 0.00711

**Q.** For C82U A111U C150G C169G U176C, which reverse-splicing fitness is on record?
**A.** 0.00452

**Q.** Which reverse-splicing fitness does the source give for C82U A111U C150G C169G U176G here?
**A.** 0.00532

**Q.** For C82U A120C A145C C150G C169U, which reverse-splicing fitness is on record?
**A.** 0.0107

**Q.** Which reverse-splicing fitness does the source give for C82U A120C A145C C150G C169A here?
**A.** 0.00723

**Q.** Which reverse-splicing fitness does the source give for C82U A120C A145C C150G C169G here?
**A.** 0.00584

**Q.** Which reverse-splicing fitness does the source give for C82U A120C A145U C150U C169A U176C here?
**A.** 0.00582

**Q.** For C82U A120C A145U C150U C169A U176A, which reverse-splicing fitness is on record?
**A.** 0.0108

**Q.** Which reverse-splicing fitness does the source give for C82U A120C A145U C150U C169A U176G here?
**A.** 0.00423

**Q.** Which reverse-splicing fitness does the source give for C82U A120C A145C C150U U176G here?
**A.** 0.00608

**Q.** Which reverse-splicing fitness does the source give for C82U A120C A145C C150U U176A here?
**A.** 0.0173

**Q.** Which reverse-splicing fitness does the source give for C82U A120C A145C C150U U176C here?
**A.** 0.0218

**Q.** For C82U A120C A145U C150A C169U U176C, which reverse-splicing fitness is on record?
**A.** 0.0164

**Q.** With C82U A120C A145U C150A C169U U176A as the variant, how does the reverse-splicing fitness read?
**A.** 0.0155

**Q.** With C82U A120C A145U C150A C169U U176G as the variant, how does the reverse-splicing fitness read?
**A.** 0.00413

**Q.** With C82U A120C A145G C150U C169U U176A as the variant, how does the reverse-splicing fitness read?
**A.** 0.0165

**Q.** For C82U A120C A145G C150U C169U U176C, which reverse-splicing fitness is on record?
**A.** 0.0169

**Q.** With C82U A120C A145G C150U C169U U176G as the variant, how does the reverse-splicing fitness read?
**A.** 0.00416

**Q.** Which reverse-splicing fitness does the source give for C82U A120C A145C C150A C169U U176G here?
**A.** 0.00376

**Q.** For C82U A120C A145C C150A C169U U176A, which reverse-splicing fitness is on record?
**A.** 0.0146

**Q.** Which reverse-splicing fitness does the source give for C82U A120C A145C C150A C169U U176C here?
**A.** 0.00799

**Q.** With C82U A111U A145U C169U U176C as the variant, how does the reverse-splicing fitness read?
**A.** 0.0127

**Q.** Which reverse-splicing fitness does the source give for C82U A111U A145U C169U U176G here?
**A.** 0.00446

**Q.** With C82U A111U A145U C169U U176A as the variant, how does the reverse-splicing fitness read?
**A.** 0.0125

**Q.** For C82U A120C A145G C150G C169A, which reverse-splicing fitness is on record?
**A.** 0.00952

**Q.** With C82U A120C A145G C150G C169U as the variant, how does the reverse-splicing fitness read?
**A.** 0.0108

**Q.** With C82U A120C A145G C150G C169G as the variant, how does the reverse-splicing fitness read?
**A.** 0.00749

**Q.** With C82U A120C A145G C150U C169A U176A as the variant, how does the reverse-splicing fitness read?
**A.** 0.0152

**Q.** For C82U A120C A145G C150U C169A U176G, which reverse-splicing fitness is on record?
**A.** 0.00464

**Q.** With C82U A120C A145G C150U C169A U176C as the variant, how does the reverse-splicing fitness read?
**A.** 0.0131

**Q.** With C82U A120C A145U C150U C169G U176G as the variant, how does the reverse-splicing fitness read?
**A.** 0.00405

**Q.** Which reverse-splicing fitness does the source give for C82U A120C A145U C150U C169G U176C here?
**A.** 0.00724

**Q.** For C82U A120C A145U C150U C169G U176A, which reverse-splicing fitness is on record?
**A.** 0.00914

**Q.** For C82U A120C A145C U176G, which reverse-splicing fitness is on record?
**A.** 0.00964

**Q.** Which reverse-splicing fitness does the source give for C82U A120C A145C U176A here?
**A.** 0.0438

**Q.** For C82U A120C A145C U176C, which reverse-splicing fitness is on record?
**A.** 0.0651

**Q.** Which reverse-splicing fitness does the source give for C82U A120C C150A here?
**A.** 0.0251

**Q.** Which reverse-splicing fitness does the source give for C82U A120C C150G here?
**A.** 0.0174

**Q.** For C82U A120C C150U, which reverse-splicing fitness is on record?
**A.** 0.0835

**Q.** Which reverse-splicing fitness does the source give for C82U A120C A145G C150A C169A U176A here?
**A.** 0.0175

**Q.** Which reverse-splicing fitness does the source give for C82U A120C A145G C150A C169A U176G here?
**A.** 0.00547

**Q.** For C82U A120C A145G C150A C169A U176C, which reverse-splicing fitness is on record?
**A.** 0.0203

**Q.** For C82U A120C A145G C150U C169G, which reverse-splicing fitness is on record?
**A.** 0.00809

**Q.** With C82U A120C A145G C150U C169A as the variant, how does the reverse-splicing fitness read?
**A.** 0.0101

**Q.** For C82U A120C A145G C150U C169U, which reverse-splicing fitness is on record?
**A.** 0.0209

**Q.** Which reverse-splicing fitness does the source give for C82U A120C C150G U176C here?
**A.** 0.0118

**Q.** For C82U A120C C150G U176G, which reverse-splicing fitness is on record?
**A.** 0.00299

**Q.** Which reverse-splicing fitness does the source give for C82U A120C C150G U176A here?
**A.** 0.00635

**Q.** For C82U A120C A145C C150A C169A U176C, which reverse-splicing fitness is on record?
**A.** 0.00429

**Q.** For C82U A120C A145C C150A C169A U176G, which reverse-splicing fitness is on record?
**A.** 0.00369

**Q.** Which reverse-splicing fitness does the source give for C82U A120C A145C C150A C169A U176A here?
**A.** 0.00849

**Q.** Which reverse-splicing fitness does the source give for C82U A120C A145G C150A C169G U176C here?
**A.** 0.0219

**Q.** Which reverse-splicing fitness does the source give for C82U A120C A145G C150A C169G U176G here?
**A.** 0.00377

**Q.** Which reverse-splicing fitness does the source give for C82U A120C A145G C150A C169G U176A here?
**A.** 0.0157

**Q.** Which reverse-splicing fitness does the source give for C82U A120C A145C C150A C169G U176A here?
**A.** 0.0162

**Q.** With C82U A120C A145C C150A C169G U176G as the variant, how does the reverse-splicing fitness read?
**A.** 0.00448

**Q.** For C82U A120C A145C C150A C169G U176C, which reverse-splicing fitness is on record?
**A.** 0.00772

**Q.** With C82U A111U A145U C150U U176A as the variant, how does the reverse-splicing fitness read?
**A.** 0.0674

**Q.** With C82U A111U A145U C150U U176C as the variant, how does the reverse-splicing fitness read?
**A.** 0.103

**Q.** Which reverse-splicing fitness does the source give for C82U A111U A145U C150U U176G here?
**A.** 0.0202

**Q.** For C82U A111U C150G C169G, which reverse-splicing fitness is on record?
**A.** 0.00698

**Q.** With C82U A111U C150G C169U as the variant, how does the reverse-splicing fitness read?
**A.** 0.0095

**Q.** For C82U A111U C150G C169A, which reverse-splicing fitness is on record?
**A.** 0.00799

**Q.** Which reverse-splicing fitness does the source give for C82U A111U C150U C169A U176C here?
**A.** 0.0125

**Q.** With C82U A111U C150U C169A U176A as the variant, how does the reverse-splicing fitness read?
**A.** 0.0138
